{"source": "patent US20110098212A1", "binders": {"B1": {"name": "CCL22 (ligand, human, UniProt O00626 25-93, looked up)", "chain": "GPYGANMEDSVCCRDYVRYRLPLRVVKHFYWTSDSCPRPGVVLLTFRDKEICADPRVPWVKMILNKLSQ"}, "B2": {"name": "CCL1/I309 (ligand, human, UniProt P22362 24-96, looked up)", "chain": "KSMQVPFSRCCFSFAEQEIPLRAILCYRNTSSICSNEGLIFKLKRGKEACALDTVGWVQRHRKMLRHCPSKRK"}}, "key": {"[1]": {"target": "chemokine receptor CCR4 (human) (UniProt P51679)", "sequence (P51679 whole entry)": "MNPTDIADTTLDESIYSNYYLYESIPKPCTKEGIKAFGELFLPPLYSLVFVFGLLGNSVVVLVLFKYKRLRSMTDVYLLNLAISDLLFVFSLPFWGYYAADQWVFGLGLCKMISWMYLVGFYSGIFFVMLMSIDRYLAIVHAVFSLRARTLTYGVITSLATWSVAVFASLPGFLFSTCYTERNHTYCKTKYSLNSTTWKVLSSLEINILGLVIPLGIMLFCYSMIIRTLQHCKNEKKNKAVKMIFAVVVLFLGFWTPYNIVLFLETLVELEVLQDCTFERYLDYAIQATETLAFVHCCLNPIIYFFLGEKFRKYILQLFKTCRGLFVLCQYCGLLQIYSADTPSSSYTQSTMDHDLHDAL", "experiment": "cell-based or functional assay"}, "[2]": {"target": "chemokine receptor CCR8 (human) (UniProt P51685)", "sequence (P51685 whole entry)": "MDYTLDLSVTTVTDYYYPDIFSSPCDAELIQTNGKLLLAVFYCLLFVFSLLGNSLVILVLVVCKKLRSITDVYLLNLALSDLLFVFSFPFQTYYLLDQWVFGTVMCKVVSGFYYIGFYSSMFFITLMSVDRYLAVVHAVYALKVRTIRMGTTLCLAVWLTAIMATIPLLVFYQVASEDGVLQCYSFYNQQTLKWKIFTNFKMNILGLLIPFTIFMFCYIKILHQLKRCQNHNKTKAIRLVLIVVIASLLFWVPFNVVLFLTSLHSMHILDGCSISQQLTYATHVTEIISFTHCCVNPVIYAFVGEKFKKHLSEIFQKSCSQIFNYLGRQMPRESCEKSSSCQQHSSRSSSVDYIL", "experiment": "cell-based or functional assay"}, "[3]": {"target": "human chemokine receptor CCR5 (human), P51681", "sequence (P51681 whole entry)": "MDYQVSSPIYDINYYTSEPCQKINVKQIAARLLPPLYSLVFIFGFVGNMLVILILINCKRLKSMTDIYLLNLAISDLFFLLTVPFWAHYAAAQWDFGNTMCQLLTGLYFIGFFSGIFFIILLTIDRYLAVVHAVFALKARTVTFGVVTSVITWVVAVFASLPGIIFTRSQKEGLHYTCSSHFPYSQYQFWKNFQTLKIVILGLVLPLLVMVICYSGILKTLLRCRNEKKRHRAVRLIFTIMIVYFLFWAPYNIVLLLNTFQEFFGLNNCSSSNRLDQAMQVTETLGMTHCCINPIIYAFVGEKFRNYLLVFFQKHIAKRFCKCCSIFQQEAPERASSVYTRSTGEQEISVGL"}, "[4]": {"target": "T1, chemokine receptor CCR1 (human), P32246", "T1 chain": "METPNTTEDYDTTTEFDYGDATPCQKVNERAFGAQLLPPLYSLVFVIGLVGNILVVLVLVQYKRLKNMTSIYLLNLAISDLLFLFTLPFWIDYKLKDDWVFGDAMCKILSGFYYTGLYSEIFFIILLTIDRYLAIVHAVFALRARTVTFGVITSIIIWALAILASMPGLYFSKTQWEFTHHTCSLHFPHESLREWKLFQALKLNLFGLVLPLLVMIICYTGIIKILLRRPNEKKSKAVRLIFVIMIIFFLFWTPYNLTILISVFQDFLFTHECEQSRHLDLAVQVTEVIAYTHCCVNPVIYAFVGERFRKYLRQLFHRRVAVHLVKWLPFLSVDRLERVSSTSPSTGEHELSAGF", "experiment": "cell-based or functional assay"}, "[5]": {"target": "human chemokine receptor CCR5 (human), P51681", "experiment": "cell-based or functional assay"}, "[6]": {"target": "human chemokine receptor CCR5 (human), P51681", "experiment": "competition binding against 166 pM 125I-CCL3 on human PBMCs"}}, "note": "Where two headings read alike, the source gives them in different places."}
{"binder": "B1", "values": [{"measurement": "chemotaxis of HUT78 cells, concentration of maximal efficacy", "setting": "[1]", "value": 10, "unit": "nM"}]}
{"binder": "B2", "values": [{"measurement": "EC50, calcium mobilisation in CCR8-CHO cells", "setting": "[2]", "value": 3.87, "unit": "nM"}, {"measurement": "chemotaxis of HUT78 cells, concentration of maximal efficacy", "setting": "[2]", "value": 1, "unit": "nM"}]}
{"binder": "FICSSPDAELFSEKSRMSSSVLLGCLLCCMDWSAAVPV (modifications not checked)", "note": "[U83A-Npep, N-terminal spliced truncated form of U83A]", "values": [{"measurement": "IC50", "setting": "[3]", "value": 8.3, "unit": "nM"}, {"measurement": "blocking of CCL3 induced calcium flux in CCR1-CHO cells by 100 nM pre-treatment", "setting": "[4]", "value": 50, "unit": "%"}, {"measurement": "blocking of the calcium response to 10 nM U83A in CCR1-CHO cells by 100 nM pre-treatment", "setting": "[4]", "value": 50, "unit": "%"}, {"measurement": "inhibition of HIV-1 YU2 infection at 50 nM", "setting": "[5]", "value": "< 50", "unit": "%"}, {"measurement": "reduction of HIV-1 JRCSF infectivity on CEM-NKR-CCR5-luc cells at 5 uM", "setting": "[5]", "value": 90, "unit": "%"}, {"measurement": "IC50", "setting": "[6]", "value": 92, "unit": "nM"}]}
